Like-named read-outs stand apart in the source and are kept apart here.
B1: AbTir^CC (amino acid 27-118) (domain or fragment, Acinetobacter, UniProt A0A009IHW8 27-118, looked up)
chain: SPSTLKTKLSEISRKEQENARIQSKLSDLQKKKIDIDNKLLKEKQNLIKEEILERKKLEVLTKKQQKDEIEHQKKLKREIDAIKASTQYITD
B2: SeThsA^SIR2 (residues 1-283) (domain or fragment, Streptococcus equi, UniProt C0MAL8 1-283, looked up)
chain: MFIIKGEVSRKDLIREIEKAIKSDELGAFIGAGLSIPAGFCSWKELLREPAEEIGLDVEKESDLVNLAQYYSNSKKRTSIDDLIKGQFSQLVKPTENHKLLSQLPISTFWTTNYDKLIEKALENNMKKPYVKTKDEQLRGTNHNFDAIVYKLHGDVETPEDAVITRSDYEEFGYNKRKLFREVLEGDLLTKTFLFLGFSFEDPNFNYVIGRLRVLLDEKNTRKHYCIMKRVQDADEDYEYKKARQELQIEDLNRYGIFTYLVNKYDEITEILSTLVDRFRRKT
B3: AbThsA (Acinetobacter baumannii ThsA) (enzyme, UniProt P0DW59 1-482, looked up)
chain: MFEHEQKIMIDRIVKELEENNFAIFAGAGLSAPAGYVNWKELLRPLSIELNLDIDKETDLVSLAQYYVNENHGRNRLTERLIDEVGVAREPTPNHKILAKLPISTYWTTNYDDLIEKALDNEGKIADKKFTKNHLSQTKKGRSAVVYKMHGDASLPDQAIITKDQYESYPLHFAPFVTALSGDLVSKTFLFLGFSFNDPNLDYILSRIRIHFEQNQRQHYCIFRKVNRADYSNDEDFSYNLLKQQFVIKDLARFSIKVVLIDAWNDLTRILEEITKRFRCKNVFLSGSAHEFGSWGQTATELFLSKLGEVLIQEGFKITSGLGLGIGNAFISGAIKEIYNRKYTKIDDYLTMKVFPQFVADPTERKNIWTAWRKDLLSQTGIALFFMGNKIIKDPESGKQTIVLADGMDEEFHIAHELGLKLIPIGASGYKAKELFNQIISDFDHYYPNSSPKFREAFEKLNEEVDEPVKLLSKIHDVIKLI
B4: EfThsA (Enterococcus faecium ThsA) (enzyme, UniProt P0DW60 1-478, looked up)
chain: MDKKVLIKRFSEAIEKGNAAIFAGAGLSMSQGYVSWPELLNDPATEIGLDSKKETDLVTLAQYYKNENGGSRGILNQILMDNFGEELEISENHRILASLPIETYWTTNYDHLIEKSIREAYKNPQVKKNYTQLATTNPNVDTIVYKMHGDIDDVSSTVITRDDYEKYDDDSYALFKETLKGDLLTKTFLFLGFSFTDPNLERILSDIRWVLRENQRPHYCIMRKILKENFVDSEDFFDQERYNYELTKRRLQINDLSRFSINVVEVDDYSEITDILKSIRKKYLRKTIFISGSAVDYTPFTSESKGLKFVEKLAYRLSESGYRIVSGYGLGIGNSIVSGVLKQRRNLRKNNIQDVLSLRPLPLDMPHEWRRYRENIIAESGISIFVFGNKLESGEIVTADGMIEEFELSVQNENIVVPIGFTKGASKVLFDKIQENFSDYFDDSLKSKFQALEKLDTEGEVDKKVEQIVSLINSIQED
B5: AbTir^TIR (amino acid 134-267) (domain or fragment, Acinetobacter, UniProt A0A009IHW8 134-267, looked up)
chain: EYDLFISHASEDKEDFVRPLAETLQQLGVNVWYDEFTLKVGDSLRQKIDSGLRNSKYGTVVLSTDFIKKDWTNYELDGLVAREMNGHKMILPIWHKITKNDVLDYSPNLADKVALNTSVNSIEEIAHQLADVIL
B6: BcThsA^SLOG (284-476) (domain or fragment, Bacilus cereus MSX-D12, UniProt J8G6Z1 284-476, looked up)
chain: TVFLSGSAVEYNHWETEHAEQFIHQLSKELIRKDFNIVSGFGLGVGSFVINGVLEELYMNQGTIDDDRLILRPFPQGKKGEEQWDKYRRDMITRTGVSIFLYGNKIDKGQVVKAKGVQSEFNISFEQNNYVVPVGATGYIAKDLWNKVNEEFETYYPGADARMKKLFGELNNEALSIEELINTIIEFVEILSN
B7: AbTir^full-length (amino acid 1-269) (natural protein, Acinetobacter, UniProt A0A009IHW8 1-269, looked up)
chain: MSLEQKKGADIISKILQIQNSIGKTTSPSTLKTKLSEISRKEQENARIQSKLSDLQKKKIDIDNKLLKEKQNLIKEEILERKKLEVLTKKQQKDEIEHQKKLKREIDAIKASTQYITDVSISSYNNTIPETEPEYDLFISHASEDKEDFVRPLAETLQQLGVNVWYDEFTLKVGDSLRQKIDSGLRNSKYGTVVLSTDFIKKDWTNYELDGLVAREMNGHKMILPIWHKITKNDVLDYSPNLADKVALNTSVNSIEEIAHQLADVILNR
B8: BcThsA, full-length (Bacillus cereus MSX-D12 Thoeris ThsA) (enzyme, Bacilus cereus MSX-D12, UniProt J8G6Z1 1-476, looked up)
chain: MKMNPIVELFIKDFTKEVMEENAAIFAGAGLSMSVGYVSWAKLLEPIAQEIGLDVNKENDLVSLAQYYCNENQGNRGRINQIILDEFSRKVDLTENHKILARLPIHTYWTTNYDRLIEKALEEENKIADVKYTVKQLATTKVKRDAVVYKMHGDVEHPSEAVLIKDDYEKYSIKMDPYIKALSGDLVSKTFLFVGFSFTDPNLDYILSRVRSAYERDQRRHYCLIKKEERRPDELEADFEYRVRKQELFISDLSRFNIKTIVLNNYNEITEILQRIENNIKTKTVFLSGSAVEYNHWETEHAEQFIHQLSKELIRKDFNIVSGFGLGVGSFVINGVLEELYMNQGTIDDDRLILRPFPQGKKGEEQWDKYRRDMITRTGVSIFLYGNKIDKGQVVKAKGVQSEFNISFEQNNYVVPVGATGYIAKDLWNKVNEEFETYYPGADARMKKLFGELNNEALSIEELINTIIEFVEILSN
B9: BtTir^TIR (residues 156-287) (domain or fragment, Bacteroides thetaiotaomicron, UniProt A0A0P0FGV9 156-287, looked up)
chain: QYDFFISHASEDKDDIVRDLAEALRNNGFEVWYDEFELKIGDSLRKKIDYGLSNANYGIVIISPSFVKKNWTEYELNGMVAREMNGHKVILPIWHKITKDEVLRFSPSLADKLALNTSIHTIDDIVENLKNL
B10: SeThsA (Streptococcus equi ThsA) (enzyme)
chain: MFIIKGEVSRKDLIREIEKAIKSDELGAFIGAGLSIPAGFCSWKELLREPAEEIGLDVEKESDLVNLAQYYSNSKKRTSIDDLIKGQFSQLVKPTENHKLLSQLPISTFWTTNYDKLIEKALENNMKKPYVKTKDEQLRGTNHNFDAIVYKLHGDVETPEDAVITRSDYEEFGYNKRKLFREVLEGDLLTKTFLFLGFSFEDPNFNYVIGRLRVLLDEKNTRKHYCIMKRVQDADEDYEYKKARQELQIEDLNRYGIFTYLVNKYDEITEILSTLVDRFRRKTIFISGSAYSYSAYSQKTGENFIHKLSFELSKNGYHIVNGYGKGVGEFVLNGVADYCLTHKSKINDFLTLMPFPQNSSLGIDLDKLYKENREQMIESCGIAIFLFGNKEAEDIASGVMDEYELSKKHGLVCLPIEYTGGASKEIYDQTTQEISDKNTISAIEQANKQCDGDIDMSVKNIVQAVKILNKEEF

What was measured:
SEC-MALS [1] = biological target: the molecule itself; test: SEC-MALS
SEC-MALS [2] = biological target: the molecule itself; test: SEC-MALS; remark: listed apart in the source
crystal structure = biological target: the molecule itself; test: crystal structure

Protein | stoichiometry N (SEC-MALS [2]) | other results
B1 | – | binding result (SEC-MALS [1]): binds
B2 | 2 | –
B3 | 4 | –
B4 | 4 | –
B5 | – | binding result (SEC-MALS [1]): binds
B6 | 2 | –
B7 | – | stoichiometry N (SEC-MALS [1]): 2
B8 | 4 | –
B9 | – | binding result (crystal structure): binds
B10 | 4 | –
